Where two headings read alike, the source gives them in different places.

Common to all, as to experiment: SPR
(In general: In SPR one partner is held on a chip, and binding of the other changes the refractive index at the surface.)

For test [1], the target named is full-length p97 A232E (MSP1 mutant) (UniProt P55072 1-806, A232E).
The target of test [2] is T1, full-length wild-type p97/VCP (UniProt P55072 1-806).
Test [3] deals with full-length p97 R155H (MSP1 mutant) (UniProt P55072 1-806, R155H).
Chain of full-length p97 R155H (MSP1 mutant) (P55072 whole entry R155H): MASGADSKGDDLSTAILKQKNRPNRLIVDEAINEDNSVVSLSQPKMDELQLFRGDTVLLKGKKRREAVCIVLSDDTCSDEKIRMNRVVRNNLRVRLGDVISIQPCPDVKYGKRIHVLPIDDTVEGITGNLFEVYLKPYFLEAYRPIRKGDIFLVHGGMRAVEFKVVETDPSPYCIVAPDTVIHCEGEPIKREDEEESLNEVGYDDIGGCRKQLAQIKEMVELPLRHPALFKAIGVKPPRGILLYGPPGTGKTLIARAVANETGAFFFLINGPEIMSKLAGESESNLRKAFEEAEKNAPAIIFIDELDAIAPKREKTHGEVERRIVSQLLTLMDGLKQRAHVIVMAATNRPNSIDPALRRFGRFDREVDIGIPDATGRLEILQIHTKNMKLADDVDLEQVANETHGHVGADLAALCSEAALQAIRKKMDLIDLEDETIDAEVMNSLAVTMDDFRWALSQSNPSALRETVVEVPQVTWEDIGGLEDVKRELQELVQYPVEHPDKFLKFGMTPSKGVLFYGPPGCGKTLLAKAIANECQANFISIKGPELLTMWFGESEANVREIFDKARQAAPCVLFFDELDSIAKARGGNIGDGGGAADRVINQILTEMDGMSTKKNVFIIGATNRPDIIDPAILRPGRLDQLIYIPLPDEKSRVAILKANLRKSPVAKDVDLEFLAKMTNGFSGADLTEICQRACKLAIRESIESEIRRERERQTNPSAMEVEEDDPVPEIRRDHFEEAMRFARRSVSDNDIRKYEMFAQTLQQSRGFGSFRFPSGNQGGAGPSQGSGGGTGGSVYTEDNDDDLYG
For test [4], the target named is T1, full-length wild-type p97/VCP. The source holds these as a separate data set.
Test [5] has the same target. The source holds these as a separate data set.

T1 sequence (P55072 whole entry): as the sequence (P55072 whole entry R155H) above, with H155R counted along it
Chain of full-length p97 A232E (MSP1 mutant) (P55072 whole entry A232E): as the sequence (P55072 whole entry R155H) above, with H155R, A232E counted along it

B1: full-length human p47 (natural protein, UniProt Q9UNZ2 1-370, looked up)
chain: MAAERQEALREFVAVTGAEEDRARFFLESAGWDLQIALASFYEDGGDEDIVTISQATPSSVSRGTAPSDNRVTSFRDLIHDQDEDEEEEEGQRFYAGGSERSGQQIVGPPRKKSPNELVDDLFKGAKEHGAVAVERVTKSPGETSKPRPFAGGGYRLGAAPEEESAYVAGEKRQHSSQDVHVVLKLWKSGFSLDNGELRSYQDPSNAQFLESIRRGEVPAELRRLAHGGQVNLDMEDHRDEDFVKPKGAFKAFTGEGQKLGSTAPQVLSTSSPAQQAENEAKASSSILIDESEPTTNIQIRLADGGRLVQKFNHSHRISDIRLFIVDARPAMAATSFILMTTFPNKELADESQTLKEANLLNAVIVQRLT
As for B1, the figures for the “KD, high-affinity site (two-site fit)” value in test [1], in test [2] and in test [3] were 21 nM, 184 nM and 18 nM, respectively.

B2: p37 (natural protein, human, UniProt Q14CS0 1-331, looked up)
chain: MAEGGGPEPGEQERRSSGPRPPSARDLQLALAELYEDEVKCKSSKSNRPKATVFKSPRTPPQRFYSSEHEYSGLNIVRPSTGKIVNELFKEAREHGAVPLNEATRASGDDKSKSFTGGGYRLGSSFCKRSEYIYGENQLQDVQILLKLWSNGFSLDDGELRPYNEPTNAQFLESVKRGEIPLELQRLVHGGQVNLDMEDHQDQEYIKPRLRFKAFSGEGQKLGSLTPEIVSTPSSPEEEDKSILNAVVLIDDSVPTTKIQIRLADGSRLIQRFNSTHRILDVRNFIVQSRPEFAALDFILVTSFPNKELTDESLTLLEADILNTVLLQQLK
Usually Kd stands for the constant that tells how readily two partners part at equilibrium. Turning to B2, the equilibrium dissociation constant (Kd) stood at 46 nM in test [4], 19 nM in test [5] and 372 nM in test [2].
